One molecule from patent US20130196320A1, “METHOD FOR IMPROVING CLEAVAGE OF DNA BY ENDONUCLEASE SENSITIVE TO METHYLATION” (CELLECTIS, priority 2010, published 2013) can be followed below.

As usually defined, the kcat is the number of substrate molecules converted per active site and unit of time at saturation.

The target of one data set is C1221 DNA target. Description: In vitro binding assay, fluorescence anisotropy of fluorescein-labeled C1221 duplex. Particulars: read-out: [I-CreI]50, apparent dissociation constant. On the procedure:
FIG. 1: Spectrofluorimetric titration of fluorescein-labeled C1221 by I-CreI. 50 nM C1221, containing either 0 or 4 methylated CG on both strands, was incubated with increasing concentrations of I-CreI (from 0 to 1.5 μM) in binding buffer (10 mM Tris-HCl, 150 mM NaCl, 10 mM CaCl2, 10 mM DTT, pH8) at 25° C. After 30 minutes incubation, the fluorescence anisotropy of the mixture was recorded and then plotted as a function of I-CreI concentration.
Fluorescein labeled C1221 oligonucleotides were synthesized and HPLC-purified by Eurogentec. […] C1221 duplex and fluorescein final concentrations were assessed by spectrophotometry using their respective extinction coefficients ε260nm=62900 M^−1 cm^−1 and ε495nm=83000 M^−1 cm^−1. […]
To investigate the binding of I-CreI to C1221 duplex, 50 nM of C1221 duplex was incubated with increasing concentrations of I-CreI (from 0 to 1.5 μM) in binding buffer (10 mM Tris-HCl, 150 mM NaCl, 10 mM CaCl2, 10 mM DTT, pH8) at 25° C. After 30 minutes incubation, the fluorescence anisotropy of the mixture was recorded with a Pherastar Plus (BMG Labtech) operating in fluorescence polarization end point mode with excitation and emission wavelengths set to 495 and 520 nm respectively. […] [I-CreI]50 is defined as the concentration of 1-CreI needed to reach 50% of the final fluorescence anisotropy.
Background: In fluorescence polarisation assays a small probe gives low polarisation when free and higher when bound to something large.

In the next data set the test system is C1234 DNA target. The data set is described as follows: In vitro single turn over cleavage assay with C1234 duplexes. In kind it is biochemical. The procedure: FIG. 5: In vitro cleavage of unmethylated or methylated C1234 by I-Cre I wild type. A constant amount of C 1234 duplex (50 nM) was incubated with an excess of I-Cre I (1.5 μM, final concentration) in the reaction buffer (10 mM Tris-HCl, 150 mM NaCl, pH8) at 37° C. Cleavage reaction was triggered by the addition of MgCl2 and then stopped after different time lengths by the addition of the stop buffer. This was followed by one hour of incubation at 37° C. to digest I-Cre I and release free DNA molecules. Cleaved and uncleaved DNA products were separated by PAGE using a TGX Any kD precast gel (Bio-Rad), stained with SYBR Green and then quantified using Quantity One software (Bio-Rad). Disappearance of substrate (uncleaved DNA) is plotted as a function of time.
To investigate the influence of C1234 methylation on the nuclease activity of I-Cre I, in vitro single turn over cleavage assays were performed with either unmethylated or methylated C1234 duplexes (unmethylated C1234 composed of SEQ ID NO: 31+SEQ ID NO: 32, C1234_Me full composed of SEQ ID NO: 35+SEQ ID NO: 38, C1234_Me-6a/-5b composed of SEQ ID NO: 33+SEQ ID NO: 36, C1234_Me-3a/-2b composed of SEQ ID NO: 34+SEQ ID NO: 37, C1234_Me-3a composed of SEQ ID NO: 34+SEQ ID NO: 32, C1234_Me-2b composed of SEQ ID NO: 31+SEQ ID NO: 37, respectively). A constant amount of C1234 duplex (50 nM) was incubated with an excess of I-Cre I (1.5 μM, final concentration) in the reaction buffer (10 mM Tris-HCl, 150 mM NaCl, pH8) at 37° C. Cleavage reaction was triggered by the addition of MgCl2 and then stopped after different time lengths by the addition of the stop buffer (45% glycerol, 95 mM EDTA, 1.5% (w/v) SDS, 1.5 mg/mL proteinase K and 0.048% (w/v) bromophenol blue, final concentrations). This was followed by one hour incubation at 37° C. to digest I-Cre I and release free DNA molecules. Cleaved and uncleaved DNA products were separated by PAGE using a TGX Any kD precast gel (Bio-Rad), stained with SYBR Green and then quantified using Quantity One software (Bio-Rad).
To test the influence of C 1234 methylation on I-Cre I cleavage activity, single turn over cleavage assays in vitro were performed with unmethylated (composed of SEQ ID NO: 31+SEQ ID NO: 32) or with different methylated forms of C1234 (FIG. 5). In these assays C1234 was premixed to a large excess of recombinant meganucleases before addition of MgCl2. After different time lengths, the reaction was quenched by addition of a stop buffer, the remaining substrate was separated from the reaction product and then quantified. In these conditions, substrate disappearance was a first order process. The rate constant of this process corresponded to the turn over number (kcat) of the meganuclease. Turn over number measurement was not affected by affinity differences between methylated and unmethylated C1234 for I-Cre I because in our experimental conditions, the totality of C1234 was bound to the meganuclease at the beginning of reaction. In addition, this measurement was not affected by the rate limiting step of product release (Wang J, Kim H H, Yuan X, Herrin D L: Purification, biochemical characterization and protein-DNA interactions of the I-CreI endonuclease produced in Escherichia coli. Nucleic Acids Res 1997, 25:3767-3776) because the complex I-Cre I:cleaved C1234 product was artificially disrupted by the proteinase K and SDS present in the stop buffer.

Where “and” joins values, the source holds several entries; their conditions need not be identical. Equal entries are not always repeated. Where two headings read alike, the source gives them in different places.

B1: I-CreI: wild-type I-CreI meganuclease (… homing endonuclease), SEQ ID NO: 1, recombinant Cterm His-tag (protein, listed as Chlamydomonas reinhardtii)
chain: MNTKYNKEFLLYLAGFVDGDGSIIAQIKPNQSYKFKHQLSLTFQVTQKTQRRWFLDKLVDEIGVGYVRDRGSVSDYILSEIKPLHNFLTQLQPFLKLKQKQANLVLKIIEQLPSAKESPDKFLEVCTWVDQIAALNDSKTRKTTSETVRAVLDSLSEKKKSSP
modifications: C-terminal His-tag
For B1, the Kd is roughly 1000 nM on C1221 DNA target (fully methylated C1221 (4 methylated CG on both strands)) and 30 nM on C1221 DNA target (unmethylated C1221). Also, the kcat was less than 1.7e-06 s⁻¹ in the data set with C1234 DNA target (C1234_Me full (fully methylated)); less than 1.7e-06 s⁻¹ in the data set on C1234 DNA target (C1234_Me-2b); 0.00095 ± 0.0001 s⁻¹ in the data set with C1234 DNA target (C1234_Me-3a); 3.3e-06 ± 5e-05 s⁻¹ in the data set with C1234 DNA target (C1234_Me-3a/-2b); 0.00033 ± 0.00012 s⁻¹ in the data set with C1234 DNA target (C1234_Me-6a/-5b); 0.000417 s⁻¹ and 0.000417 ± 3.3e-05 s⁻¹ in the data set with C1234 DNA target (unmethylated C1234). In addition, the “effect of methylation on catalytic activity” value is on record as “almost totally inhibited it” in the data set with C1234 DNA target (C1234 methylated in position −2b); “didn't affect 1-Cre I catalytic activity” with C1234 DNA target (C1234 methylated in position −3a); “strongly affected the catalytic activity of I-Cre I” with C1234 DNA target (C1234 methylated in positions −3a and −2b (within the cleavage region)); “did not affect I-Cre I catalytic activity” in the data set on C1234 DNA target (C1234 methylated in positions −6a/−5b (outside the cleavage region)).
